Data on one substance can be found in patent US20160166613A1.

Experiment [1] addresses CD19-CAR-FRBl2 (CD19 chimeric antigen receptor with two tandem FRBl domains, coexpressed with iCaspase9 from iC9-CAR(19).FRBl2).
For experiment [2] the target is unchanged. Briefly: cell-based or functional assay.
Experiment [3] concerns the target Her2-CAR-FRBl2 (Her2 chimeric antigen receptor with two tandem FRBl domains fused to the carboxy terminus). Briefly: cell-based or functional assay.

Sequence of CD19-CAR-FRBl2 (CD19 chimeric antigen receptor with two tandem FRBl domains, coexpressed with iCaspase9 from iC9-CAR(19).FRBl2) (chain, as listed by the source mutant limits assumed): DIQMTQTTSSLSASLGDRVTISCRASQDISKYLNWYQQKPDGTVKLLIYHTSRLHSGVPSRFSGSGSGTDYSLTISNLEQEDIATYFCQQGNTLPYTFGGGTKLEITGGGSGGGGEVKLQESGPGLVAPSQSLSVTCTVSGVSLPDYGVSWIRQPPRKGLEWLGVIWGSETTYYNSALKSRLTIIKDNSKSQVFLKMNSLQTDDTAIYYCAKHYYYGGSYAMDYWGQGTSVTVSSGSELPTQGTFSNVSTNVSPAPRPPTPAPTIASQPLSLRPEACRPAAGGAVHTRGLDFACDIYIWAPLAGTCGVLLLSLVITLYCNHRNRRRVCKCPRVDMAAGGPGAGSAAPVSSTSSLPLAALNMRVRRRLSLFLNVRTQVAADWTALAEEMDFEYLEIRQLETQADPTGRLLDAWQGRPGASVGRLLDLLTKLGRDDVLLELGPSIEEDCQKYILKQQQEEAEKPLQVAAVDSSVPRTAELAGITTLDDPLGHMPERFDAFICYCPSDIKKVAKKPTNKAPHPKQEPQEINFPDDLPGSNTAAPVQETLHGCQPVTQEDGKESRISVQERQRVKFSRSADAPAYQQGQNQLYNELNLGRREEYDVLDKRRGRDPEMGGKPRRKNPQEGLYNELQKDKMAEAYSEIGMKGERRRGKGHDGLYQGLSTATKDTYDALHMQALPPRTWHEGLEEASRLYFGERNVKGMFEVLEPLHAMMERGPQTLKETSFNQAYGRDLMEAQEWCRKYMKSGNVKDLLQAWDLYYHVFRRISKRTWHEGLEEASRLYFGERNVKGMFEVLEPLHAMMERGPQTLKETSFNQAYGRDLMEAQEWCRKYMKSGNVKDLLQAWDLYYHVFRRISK
Sequence of Her2-CAR-FRBl2 (Her2 chimeric antigen receptor with two tandem FRBl domains fused to the carboxy terminus) (chain, as listed by the source mutant limits assumed): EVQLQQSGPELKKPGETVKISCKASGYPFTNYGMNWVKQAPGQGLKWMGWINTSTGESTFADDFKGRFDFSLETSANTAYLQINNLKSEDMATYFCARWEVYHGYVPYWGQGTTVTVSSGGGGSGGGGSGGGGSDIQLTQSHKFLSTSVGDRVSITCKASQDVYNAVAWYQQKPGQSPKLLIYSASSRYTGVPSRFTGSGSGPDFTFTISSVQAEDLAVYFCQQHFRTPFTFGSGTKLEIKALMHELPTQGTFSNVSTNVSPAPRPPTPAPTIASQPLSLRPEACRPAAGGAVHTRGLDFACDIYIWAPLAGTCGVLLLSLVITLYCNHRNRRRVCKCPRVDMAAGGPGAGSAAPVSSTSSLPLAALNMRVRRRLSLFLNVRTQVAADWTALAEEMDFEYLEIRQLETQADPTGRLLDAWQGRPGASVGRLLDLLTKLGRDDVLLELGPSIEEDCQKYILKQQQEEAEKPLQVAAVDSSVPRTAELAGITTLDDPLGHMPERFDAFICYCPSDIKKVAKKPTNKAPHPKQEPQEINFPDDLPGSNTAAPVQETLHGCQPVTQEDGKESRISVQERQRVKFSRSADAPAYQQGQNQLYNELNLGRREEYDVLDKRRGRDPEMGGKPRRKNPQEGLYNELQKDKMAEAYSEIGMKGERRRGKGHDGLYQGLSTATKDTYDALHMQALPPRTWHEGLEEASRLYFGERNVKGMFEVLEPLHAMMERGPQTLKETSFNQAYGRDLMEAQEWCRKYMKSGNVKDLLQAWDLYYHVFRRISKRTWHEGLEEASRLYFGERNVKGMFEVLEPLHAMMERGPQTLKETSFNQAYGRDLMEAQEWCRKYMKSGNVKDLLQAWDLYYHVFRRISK

In experiment [1], “inducible Caspase-9 (FKBP12v36 - SGGGSG linker - dCaspase9) (enzyme)” returned an IC50 (read off the curve): concentration of the dimerizer rapamycin (not of a protein) at half-maximal loss of SEAP activity, 293 cells expressing iC9.CAR(19)-FRBl2 of 1 nM. Besides, the SEAP activity (constitutive SRα-SEAP reporter in transfected 293 cells, overnight with half-log dilutions of rapamycin) (% decrease of SEAP activity) in experiment [2] and in experiment [3] was 50 each time.
